Here are results for six molecules from US11781164B2, “Demethylation of reticuline and derivatives thereof with fungal cytochrome P450” (priority 2017, dated 2023).

B1: CYPDN17: cytochrome P450 homolog A0A2G4SQ34 from Rhizopus microsporus, codon-optimized (protein, listed as Rhizopus microsporus)
chain: MDHLIQVYNSSTQVLIPVLQKRSKASYITAAIALIIAQRLYSYFRVPKHLRGFPKLPYFGIAKSLLTRESPRERVKKYVLPIIDENDGFYISKIPFGWMLYIANPVAAKQLLLKSSGFPKNHGLLDNMGENLFVEFIGKDNVALSNGDTWKRQRKVMNPAFHHSLPIKTMSKVVFSLISAIEQANGTIPVASAMQNFTLDTLGLAIFGFDFKALQGDPDEWTKTYRFVSDCIFDPVINVFSSYSFIIDRIYPRRRRGAIATKKLSEKFLKIAQQKRKEIKSGAYADVPDNEKDLLTLMLEAEEKGDTWTSEDELRHNIAILFVAGHDTTAHALSFCFYHLAKNKDVQQKLRKEVLSILGDKPVDVVPTVEQLKNMQYLNMVIKENLRINSPADMLFSRDVKEDTILANTLIPKGTVVTINIEALHYNPRLWHNPDQFDPERFAPGGEHEKHEGMTWLPFSNGTRQCLGMNFSLFEQRLVIAMILKKYEISIPEDSIHRDHIVSDIPFNGAPKSLKLTFTKRH
B2: CYPDN8: cytochrome P450 homolog A0A0C7AZL4 from Rhizopus microsporus, codon-optimized (protein, listed as Rhizopus microsporus)
chain: MDHLIQVYNSSTQVLIPVLQKRSKASYITAAIALIIAQRLYSYFRVPKHLRGFPKLPYFGIAKSFFAKESPRERVKKYILPIINERDGFYISNIPFGWMLYVTNPIAAKQILLKSNGFPKNHGLLEDMGENLFIEFIGKDNVVLTNGDTWKRQRKVMNPAFHHSLPIKTMSNVVFSLISVIDQANGTVPVASTMQNFTLDTLGLAIFGFDFKALQGDGDEWTKTYRLVSDCLFDPIINVFSSYSFIFDRIYPRRRRGAMATRKLGEKFLEIAQQKRMEIKSGAFADVPDNEKDLLTLMLEAEEKGDVWTSEDELRHNIAVLFLAGHDTTAHALSFCFYHLAKNKDIQQKLRKEVLDLLGDEPVDVVPTVEQLKDMQYLNMVIKENLRMNSPADMLFSRDVQEDIVLANTFIPKGTVISINIEALHCNPKLWHNPDQFDPERFAPGGEHEQHEGMTWLPFSNGTRQCLGMNFSLFEQRLVIAMILKKYEISIPEDSIHRNHIINDMPFNVAPKSLELTFTKRY
modifications: codon-optimized
B3: CYPDN10: cytochrome P450 homolog A0A0B7NB52 from Parasitella parasitica, codon-optimized (protein, listed as Parasitella parasitica)
chain: MAIENFMQSYNRAIENVLPILRKRSKASYIGMAIMCIVIKQVYSAYSVPKHLQRFPKVSFLSMIRSYLIKEAVVERTKRLVTPLTDAGHGFYVCKIPLTWTVFVTDPIAAKTLLLKTEFFPKSHAFFDALGDNSPAVQFLGRENVAASNGEIWKKQRKFMNPAFLRSSPVKTFSSVTHNLIKVIETQSDAVPIANCMKAFTIDALGLSAFGFDFQSLNGDPEGWTETYNIAIAGLFDPFINIFVKVDFMMNYISSKRKRINKAITRFNSMLEDLANKRRQEILNGETLGVPENEKDLLTLMIEADIREGSRTTSTELRHNIALFFLAGHDTTAHTLAFCLYNLAKNKHVQAKARAEVLDILGDEPKDVDPTMEDLKRMDYLNMVIKENLRRCGPVDKLLSRDTAEDIDLNGTLIPKGQKISIDFNSIHMNPKLWHNPEEFVPERFEPGGEFDQHTGFTWLPFSHGSRQCIGMNFSLTEQKVLLSMICKRAIEEI
B4: CYPDN11: cytochrome P450 homolog A0A068SB73 from Lichtheimia corymbifera, codon-optimized (protein, listed as Lichtheimia corymbifera)
chain: MAVASPQIKNMVTMDRLQDIYSTVSQHVVAHASAVTSRQRKISISAAVALVAFYTVYKVVTPPANLRHIPSMGFFSYLNAFLRGKQLHDISKNVVLPHAVNVDNGVYLRFDILGWTVHIARPEAAKRFLLKSDIFPKADMISERGNTLFGKFVFNRNIVMLNGDDWKAQRKVANPAFHRAMPVELFGRLTQKTLKKMEEEMDGGTLNFHDITERYTLEVIGLAGFEFEFGAIENPKSEWVDRYQRLIEATFNPWFIAFPNLDMRYRFLFPSRKRLHREMDAFLDKMSQVITHKRELLNHQKTTVPESERDILTLMIEAEKNGEGSMTNEELQNNLLVFFIAGHDTTSLALSYAAYYLAVNPDVQRKAREEAIRVLGDAPEDVMPTVEQTRQLTYINMVIKETLRMSPPLATIPVREASEDTELCGTFIPKGTRTFLDIYEIQHNPTVWKDPETFKPERFKPGGEAEELAGSGMSWLPFSNGSRQCIGLNFSLVEQRVFLPMLLRKYEWHLPEDSIHKERIQTMGLAVIKPKDLKLTFKKRY
B5: CYPDN9: cytochrome P450 homolog A0A1X2HQ99 from Syncephalastrum racemosum, codon-optimized (protein, listed as Syncephalastrum racemosum)
chain: MFRPPAGLPKLPIINYFRLLWALYRKESPTRRSQRLILPALQKHNAKAYLAKVPYTWTVYLVDPVAVKTFLMRNGTFPKTMESIDAFDQSHPNVQFWGRENLGFSVGDSWKRQRKIIFPAFRRAMPVQLFGELVPKMFDLIDKEHSTIAIDLMQRFTLDALGLAAFSFDFHALDNHNNEWEVAYEMIRKELVSPLTNMLARYDYILKYIIPGRAEKQAAVSKINHLLSDIANERRKMIKRNPDMLKVPDSEKDLLTLMLESDLENSDDPASEELIRANLATFFLAGHDTTANTLSFWLYHLAMYKDIQKKAREEVIETMGGAPEDIVPTAEQLKKMKYMDCIIKENLRFMGPALELFPRIAKEDYNLNGIFIPKGTRVSVDLHTLHHHPDVWKEPERFDPLRFVENGEHSKHEGLSWIAFSSGARVCIGQNFSLVEQRVVMSMLLRRYEWDIPEDSIHREGLQLKDTNNQAPRSLEIVFKKRY
modifications: codon-optimized
B6: CYPDN12: cytochrome P450 homolog A0A1C7N669 from Choanephora cucurbitarum, codon-optimized (protein, listed as Choanephora cucurbitarum)
chain: MFTETALQIYHQMAEKVLPILKRQPKSSYIGAALVFLLVAEIRRQLSVPKHLKKFPTIGVFTLMKSFMRNDSVIERHNRLVAPIVKQGHKFYAAKIPFDWSLSIVDPEIAKIMLMKSDAFPKSQGFTRKLGDSSLIVRFTGRDNVSISNGHVWKRQRKFMNPAFRRSTPIKTFGELTLKFFDCVDEQPQDFPAAIKLKNYTLDALGIAAFDFDFKSLSGDPEGWTEIYNVIMKGMFDPWVFLFGKMEFILQYIIPSKRECIKSVVKFNKMLVEMADKRRQEIQNGKKLNTPNSEKDLLTLMIEAEMEEGIMTTNEELRENIALFFLAGQDSTGNSLSFCLYHLAKNKHVQDKLRREIMSVMGDRDLDAIPTVEDFKDMPYLNMVIKENLRLSGPADRFLDRVVAEDIVLGGELIPKGTLITVDVASIHYNPEYWHDPEVFIPERFEPNGEFDQHAGVAWLPFSNGARQCIGMNFSLAEQRVFLTMLLRRYEVGISKDSIHYDSIVYEQSFTFAPSSLTLNFTKLN

The subject of the first data set is thebaine. Description: Demethylation of thebaine by new cytochrome P450 fungal and plant homologs co-expressed with CPRs in S. cerevisiae. The conditions noted are these: 0.5 mM thebaine, SC or DELFT media pH 7, 72 h.
In the case of B1, the “O-demethylation activity compared to the positive control Ps_CODM_co” value is listed as “substantially higher”; the “O-demethylation activity, converting thebaine to oripavine” value was “display 0-demethylation activity”; the “nororipavine production in the presence of thebaine” value is “detected”.

For the molecule B2, the “O-demethylation activity compared to the positive control Ps_CODM_co” value is on record as “substantially higher”; the “O-demethylation activity, converting thebaine to oripavine” value is given as “display 0-demethylation activity”; the “nororipavine production in the presence of thebaine” value was “detected”.

Still in this data set, the particulars now being: 0.5 mM thebaine, SC or DELFT media pH 7, 72 h, 30° C.; co-expressed with Cel_CPR_co, Tp_CPR_5866, Tp_CPR_DN10898 or POR1.
As for B1, the Northebaine production entry is on record as “+”.

For B3, the Northebaine production result is “+”.

As for B2, the Northebaine production entry is given as “+”.

For B4, the Northebaine production result is reported as “+”.

As to B5, the Northebaine production result is “−”.

B6: the Northebaine production entry is recorded as “+”.
